In US20220282217A1 (BIONTECH US, published 2022):

Legend:
[1] = target: T1, HLA class I molecule A02.01; experiment: competition with radiolabeled reference peptide on purified MHC I
T1 construct: Purified MHC class I complex; also called HLA-A02:01
Method: (§1) Peptides were incubated at varying concentrations with these complexes for 2 days, and the amount of remaining radiolabeled peptide bound to […] was measured using size exclusion gel-filtration.

HLA-A02.01 [2] = target: HLA-A02.01 (human); experiment: pMHC-I complex dissociation at 37 C, 125I-b2m, half-life
Method: (§2) Briefly, synthetic genes encoding biotinylated MHC-I heavy and light chains are expressed in E. coli and purified from inclusion bodies using standard methods. […] These reactions are carried out in streptavidin coated microplates to bind the biotinylated MHC-I heavy chains to the surface and allow measurement of radiolabeled light chain to monitor complex formation. Dissociation is initiated by addition of higher concentrations of unlabeled light-chain and incubation at 37° C. Stability is defined as the length of time in hours it takes for half of the complexes to dissociate, as measured by scintillation counts.

HLA-A02.01 [3] = target: HLA-A02.01 (human); experiment: competition vs radiolabeled reference peptide on purified MHC I, gel filtration
Method: as §1

[4] = target: T1, HLA class I molecule A02.01; experiment: pMHC-I dissociation half-life, 125I-b2m
Method: as §2

Binder | IC50 [1] [nM] | Stability (T1/2 (h)) (HLA-A02.01 [2]) [h] | IC50 (HLA-A02.01 [3]) [nM] | Stability (T1/2 (h)) [4] [h]
ITAFFFCWI (also called NDUFC2 (-KCDT14)(+1)) | 7490 |  |  | 
YITAFFLLDI (also called NDUFC2 (-KCDT14)(-1)) | 64.5 |  |  | 
ILLPEDTPPL (also called MSH6(+1)) | 6.7 |  |  | 
PLCDLLLEML (also called ESR1, Y537C) |  | 0.9 | 2010 | 
PLNDLLLEML (also called ESR1, Y537N) |  | 0 | 12000 | 
PLSDLLLEML (also called E5R1, Y537S (so in the source); ESR1, Y537S) |  | 0 | 6470 | 
IIEYCCYGDL (also called KIT, T670I) | 7310 |  |  | 0
IIEYCFYGDL (also called PDGFRa, T674I) | 1090 |  |  | 0
LLPIPPLSPS (also called MYC, T58I) |  |  |  | 0
ITAFFLLDI (also called NDUFC2 (-KCDT14)(-1)) | 78.7 |  |  | 
YLGNHMNIAN (also called KIT, V654A) | 1340 |  |  | 0
ALEEKKGNYV (also called EGFRvIII (internal deletion)) |  | 0 | 141 | 
PLCDLLLEM (also called ESR1, Y537C) |  | 0.8 | 602 | 
PLSDLLLEM (also called ESR1, Y537S) |  | 2.7 | 404 | 
PLNDLLLEM (also called ESR1, Y537N) |  | 4.2 | 151 | 
TIGGPTLVII (also called KIT, T670I) | 10700 |  |  | 0
LMELMAGGDL (also called ALK, L1196M) |  | 8.9 | 311 | 
IIIEFMTYGN (also called ABL1, T315I) |  | 0 |  | 
SLYIVGFYG (also called MEK, P124L) | 1060 |  |  | 0
VLHESNSPYI (also called MEK, C121S) | 131 |  |  | 1.9
ALSASNSCFI (also called FRG1B, L52S) | 226 |  |  | 0.8
FILMELMAGG (also called ALK, L1196M) |  | 0 | 1580 | 
IANLLGACTI (also called KIT, V654A) | 6420 |  |  | 0
VMAYVMAGV (also called HER2, G776insYVMA) | 2 |  |  | 16.5
GVYTFLPST (also called ESR1, S463P) |  | 1.3 | 779 | 
IIEFMTYGNL (also called ABL1, T315I) |  | 0 | 9700 | 

Binder | IC50 [1] [nM] | Stability (T1/2 (h)) (HLA-A02.01 [2]) [h] | IC50 (HLA-A02.01 [3]) [nM] | Stability (T1/2 (h)) [4] [h]
MNIANLLGA (also called KIT, V654A) | 128 |  |  | 0.3
ILMELMAGG (also called ALK, L1196M) |  | 0.5 | 223 | 
SLYIVGFYGA (also called MEK, P124L) | 390 |  |  | 0.4
TQISSATEYL (also called ABL1, M351T) |  | 0 | 2640 | 
KLGGGQHGEV (also called ABL1, Y253H) |  | 0.4 | 387 | 
IIIEFMTYG (also called ABL1, T315I) |  | 0 | 779 | 
VLLSVHLIV (also called APC, AVEW) |  | 11 | 72 | 
VIIEYCCYG (also called KIT, T670I) | 191 |  |  | 0.5
HMNIANLLGA (also called KIT, V654A) | 430 |  |  | 0
NVVPLCDLLL (also called ESR1, Y537C) |  | 0 | 1370 | 
NVVPLSDLLL (also called ESR1, Y537S) |  | 0 | 741 | 
NVVPLNDLLL (also called ESR1, Y537N) |  | 0 | 4190 | 
GLLLEMLDA (also called ESR1, D538G) |  | 0.4 | 558 | 
NVVPLYGLL (also called ESR1, D538G) |  | 0 | 10500 | 
LQMDFLVHPA (likely a print error; also called APC, VHPA) […] |  | 1.5 | 68 | 
YIIIEFMTYG (also called ABL1, T315I) |  | 0 | 186 | 
CLADVLLSV (also called APC, AVEW) |  | 24 | 219 | 
LIMQLMPFGC (also called EGFR, T790M) |  | 0.4 |  | 
KVLQMDFLV (also called APC, VHPA) |  | 6.4 | 11 | 
VLTVTSTDV (also called FGFR3: TACC3) |  | 1.1 | 295 | 
PLYGLLLEM (also called ESR1, D538G) |  | 0.7 | 640 | 
ILMELMAGGD (also called ALK, L1196M) |  | 0 | 3450 | 
NVVPLCDLL (also called ESR1, Y537C) |  | 0 | 3030 | 
NVVPLNDLL (also called ESR1, Y537N) |  | 0 | 2900 | 
NVVPLSDLL (also called ESR1, Y537S) |  | 0 | 916 | 
FQNGKMALS (also called FRG1B, L52S) | 3280 |  |  | 0
